The target of assay [1] is T1, human TSLP antigen tagged with Flag (hTSLP-Flag) (human, UniProt Q969D9 29-159, limits assumed). In words: cell-based or functional assay.
In assay [2] the target is T1, human TSLP antigen tagged with Flag …. In words: SPR, Biacore T200, antibody captured on Protein A chip, hTSLP-Flag as analyte. A general note: In SPR one partner is held on a chip, and binding of the other changes the refractive index at the surface.
Assay [3] has as its target T2, TSLP-flag-Biotin (human, UniProt Q969D9 29-159, limits assumed, biotin label, site not stated).
T2 construct: the labelling is not described; also called biotinylated TSLP-flag
In words: competition ELISA by the method of Example 5: blocks TSLP-flag-Biotin binding to coated TSLPR-ECD-hFc. A general note: An ELISA detects its analyte on a solid surface through an enzyme-linked reagent.

B1: humanized anti-human TSLP antibody 163H (antibody, human IgG1, kappa, V domains shown)
VH: EVQLVESGGGLVQPGGSLRLSCAASGFTFSSFGMHWVRQAPGKGLEWVSYISSGSSNIYYADTVKGRFTISRDNAKNSLYLQMNSLRAEDTAVYYCARDGGSRRHYYVMDYWGQGTLVTVSS
VL: EIVLTQSPATLSLSPGERATLSCKASQDVSPAVAWYQQKPGQSPRLLIYSASYRYTGVPARFSGSGSGTDFTLTISSLEPEDFAVYYCQQHYSSPFTFGQGTKLEIKR
notes: Humanized, human IgG1 constant region
What is called Kd is a measure of binding affinity in units of concentration. Lower therefore signals higher affinity. In general, koff refers to the first-order rate constant of dissociation. Read a high koff as fast dissociation. In general, kon refers to the rate constant with which the complex forms. A word on the IC50: it is the concentration needed to halve the response being measured. For B1, the “IC50 of inhibition of TSLP-dependent STAT5 activation (luciferase, IL-7R/TSLPR-BaF3-Luc (STAT5) cells, TSLP-flag stimulus)” value in assay [1] amounted to 0.378 µg/mL. In assay [2], the Kd amounted to 0.0513 nM, the off-rate (koff) amounted to 0.000302 s⁻¹ and the kon was 5.89e+06 M⁻¹ s⁻¹. In addition, the IC50 in assay [3] was found to be 0.159 µg/mL.

B2: humanized anti-human TSLP antibody 111H (antibody, human IgG1, kappa, V domains shown)
VH: EVQLVESGGGLVQPGGSLRLSCSVSGFSLTYSGVNWVRQAPGKGLEWLGAIWGDGSTNYHSALISRLTISKDNSKSTVYLQMNSLRAEDTAVYYCAKPDGYSGIFAYWGQGTLVTVSS
VL: EIVLTQSPGTLSLSPGERATLSCSASSSLSSNYLHWYQQKPGQAPRLLIYRTSNLASGVPDRFSGSGSGTDFTLTISRLEPEDFAVYYCQQGSGILVTFGQGTKLEIKR
notes: Humanized, human IgG1 constant region; also called humanized antibody No. 111
Consider B2, for which the “IC50 of inhibition of TSLP-dependent STAT5 activation (luciferase, IL-7R/TSLPR-BaF3-Luc (STAT5) cells, TSLP-flag stimulus)” value in assay [1] came out at 0.184 µg/mL. Besides, the IC50 in assay [3] turned out to be 0.167 µg/mL.

B3: humanized anti-human TSLP antibody 101H (antibody, human IgG1, kappa, V domains shown)
VH: QVQLVQSGAEVKKPGASVKVSCKTSGYTFTKYWIQWVRQAPGQGLEWIGEIFPGTGTTYYNEIFKARVTLTVDTSTSTAYMELSSLRSEDTAVYYCARRGDYDVYYALDYWGQGTLVTVSS
VL: EIVLTQSPATLSLSPGERATLSCSANSGVNYIHWYQQKPGQAPRFWIWTTSNLASGVPARFSGSGSGTDFTLTISSLEPEDFAVYYCQQRSSYPFTFGQGTKLEIKR
notes: Humanized, human IgG1 constant region; also called humanized antibody No. 101
B3 returned an IC50 in assay [3] of 0.185 µg/mL.

Source of the values: patent publication US20240262904A1 (SHANGHAI MABGEEK BIOTECH, published 2024).
